Columns and labels:
GST-E2 300–360 = molecular target: T1, GST-E2 300–360 (Epstein-Barr virus, UniProt P12978 300-360); test: pull-down; conditions: one partner purified
T1 construct: source: E. coli BL21 (DE3) pLys, purified (GST-sepharose)
T1 sequence: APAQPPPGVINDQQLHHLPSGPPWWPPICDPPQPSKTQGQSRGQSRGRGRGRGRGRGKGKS

[1] = molecular target: T2, EBNA2 from the transfected expression vector (pSG5-EBNA2, E2) (Epstein-Barr virus, UniProt P12978 1-487); test: cell-based or functional assay
T2 sequence (looked up): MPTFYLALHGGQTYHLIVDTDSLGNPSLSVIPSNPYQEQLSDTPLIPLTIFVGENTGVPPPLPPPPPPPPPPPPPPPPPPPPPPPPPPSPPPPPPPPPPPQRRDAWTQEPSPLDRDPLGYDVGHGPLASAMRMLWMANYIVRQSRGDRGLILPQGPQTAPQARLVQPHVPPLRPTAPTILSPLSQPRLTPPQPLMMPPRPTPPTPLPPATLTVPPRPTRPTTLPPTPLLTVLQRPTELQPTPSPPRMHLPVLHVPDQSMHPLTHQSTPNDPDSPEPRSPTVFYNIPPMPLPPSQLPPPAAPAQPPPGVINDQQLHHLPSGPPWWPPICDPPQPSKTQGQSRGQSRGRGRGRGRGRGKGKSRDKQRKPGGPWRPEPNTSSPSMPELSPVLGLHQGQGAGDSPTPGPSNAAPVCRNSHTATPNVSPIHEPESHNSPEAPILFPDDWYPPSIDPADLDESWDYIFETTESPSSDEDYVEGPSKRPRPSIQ

B1: flag-tagged NPM1 truncated deletion mutant C3 (1–120) (domain or fragment, UniProt P06748 1-120, looked up)
chain: MEDSMDMDMSPLRPQNYLFGCELKADKDYHFKVDNDENEHQLSLRTVSLGAGAKDELHIVEAEAMNYEGSPIKVTLATLKMSVQPTVSLGGFEITPPVVLRLKCGSGPVHISGQHLVAVE
notes: also called N-terminal oligomerization domain (OD); source: BJAB, transfected, in lysate
percent of input pulled down (GST-E2 300–360): ~2%
co-activation of EBNA2-dependent LMP1-Luc reporter activity in BJAB cells [1]: 2.5 fold

B2: flag-tagged NPM1 truncated deletion mutant C2 (1–194) (domain or fragment, UniProt P06748 1-194, looked up)
chain: MEDSMDMDMSPLRPQNYLFGCELKADKDYHFKVDNDENEHQLSLRTVSLGAGAKDELHIVEAEAMNYEGSPIKVTLATLKMSVQPTVSLGGFEITPPVVLRLKCGSGPVHISGQHLVAVEEDAESEDEEEEDVKLLSISGKRSAPGGGSKVPQKKVKLAADEDDDDDDEEDDDEDDDDDDFDDEEAEEKAPVKK
notes: source: BJAB, transfected, in lysate
percent of input pulled down (GST-E2 300–360): ~2%
co-activation of EBNA2-dependent LMP1-Luc reporter activity in BJAB cells [1]: 2.5 fold
